Laboratory results: the nanobody polyreactivity screen of Harvey et al. (2022)

Assay: yeast display, Sf9 membrane polyspecificity reagent, FACS + sequencing; frameworks hold sequencing errors
In short: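 In a synthetic yeast display library (Saccharomyces cerevisiae BJ5465), nanobody expression was induced with galactose for 36–48 hours. FACS gates were set low and high (top ~1%) using anti-HA fluorescence for expression and streptavidin fluorescence for binding of the Sf9 membrane reagent. Each polyreactivity label is drawn from the gate of origin.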

Q: For “QVQLVESGGGLVHAGGSLRLSCAASGRTFNGYVMGWYRQAPGKERELVAAITNRDGSTYYADSVKGRFTISRDNAKNTVYLQMYSLKPEDSAVYYCAAPVWLWADRYDSWGQGTQVTVSS”, which “polyreactivity (PSR sort gate)” value is on record?
A: low polyreactivity

Q: Which “polyreactivity (PSR sort gate)” value does the source give for “QVQLVESGGGLVQAGGSLRLSCAASGSTFADYAMGWYRQAPGKERELVAAITSSGGDTYYADSVKGRFTISRDNAKNTVYLQMNSLKPEDTAVYYCAVVDTLYDSKYDYWGQGTQVTVSS” here?
A: low polyreactivity

Q: With “QVQLVESGGGLVQAGGSLRLSCAASGITFNPNAMGWYRQAPGKERELVAVITYRGGSTYYADSVKGRFTISRDNAKNTVYLQMNSLKPEDTAVYYCAAQYIGWHLYWYDYWGQGTQVTVSS” as the sequence, how does the “polyreactivity (PSR sort gate)” value read?
A: low polyreactivity

Q: For “QVQLVESGGGLVQAGGSLRLSCAASGSTFRVYAMGWYRQAPGKERELVAAISRSGSITYYADSVKGRFTISRDNAKNTVYLQMNSLKPEDTAVYYCAARTYSRFTASTYYYWGQGTQVTVSS”, which “polyreactivity (PSR sort gate)” value is on record?
A: high polyreactivity

Q: With “QVQLVESGGGLVQAGGSLRLSCAASGSIFKYAMGWSRQAPGKERELVAAINQRGGRTYYADSVKGRFTISRDNAKNTVYLQMNSLKPEDTAVYYCNAYYLRTSSTEYDYWGQGTQVTVSS” as the sequence, how does the “polyreactivity (PSR sort gate)” value read?
A: high polyreactivity

Q: For “QVQLVESGGGLVQAGGSLRLSCAASGRIFNRNAMGWYRQAPGKERELVAAISRSGDNTYYADSVKGRFTISRDNAKNTVYLQMNSLKPEDTAVYYCAKDGSLDAQSYDYDYWGQGTQVTVSS”, which “polyreactivity (PSR sort gate)” value is on record?
A: low polyreactivity

Q: Which “polyreactivity (PSR sort gate)” value does the source give for “QVQLVESGGGLVQAGGSLRLSCAASGSTFVSNAMGWYRQAPGKERELVAGISWSGGSTYYADSVKGRFTISRDNAKNTVYLQMHSLKPEDTAVYYCNAVYRPRQFDYWGQGTQVTVSS” here?
A: low polyreactivity

Q: With “QVQLVESGGGLVQAGGSLRLSCAASGFILGANAMGWYRQAPGKERELVAAIRSSDGTTYYADSVKGRFTISRDNAKNTVYLQMNSLKPEDTAVYYCAADWRLLYEYWGQGTQVTVSS” as the sequence, how does the “polyreactivity (PSR sort gate)” value read?
A: high polyreactivity

Q: For “QVQLVESVGGLVQAGGSLRLSCAASGFTFFHYAMGWYRQAPGKERELVAAINTRGSRTYYADSVKGRFTISRDNAKNTVYLQMNSLKPEDTAVYYCAADSVQVYAWQYYYWGQGTQVTVSS”, which “polyreactivity (PSR sort gate)” value is on record?
A: high polyreactivity

Q: Which “polyreactivity (PSR sort gate)” value does the source give for “QVQLVESGVGLVQAGGSLRLICAASGSIFWSNAMGWYTQAPGKERELVAAISSGGSTYADSVKGRFTISRDNAKNTVYLQMNSLKPEDTAVYYCNADVLYGDSYRGGYWGQGTQVTVSS” here?
A: low polyreactivity

Q: With “QVQLVESGGGLVQAGGSLRLSCAASGSIFYPYAMGWYRQAPGKEREWVATITLSGGRTYYADSVKGRFTISRDNAKNTVYLQMNSLKPEDTAVYYCATDYAYGAFLYDYWGQGTQVTVSS” as the sequence, how does the “polyreactivity (PSR sort gate)” value read?
A: low polyreactivity

Q: With “QVQLGESGGGLVQAGGSLRLSCAASGGTYTHYGMGWYRQATGKERELVAAITWTASSTYYADSVKGRFTISRDNAKNTVYLQMNSLKPEDTAVYYCATSYYYWGHTYDYWGQGTQVTVSS” as the sequence, how does the “polyreactivity (PSR sort gate)” value read?
A: low polyreactivity

Q: With “QVQLVESGGGLVQAGGSLRLSCAASGRIFRGYAMGWYRQAPGKERELVAAISQSGSSTYYADSVKGRFTISRDNAKNTVYLQMNSLKPEDTAVYFCAVKYLKHFGYWGQGTQVTVSS” as the sequence, how does the “polyreactivity (PSR sort gate)” value read?
A: high polyreactivity

Q: With “QVQLVESGGGLVQAGGSLRLSCAASGFIFGYNGMGWYRQAPGKERELVAYADSVKGRFTISRDNAKNTVYLQMNSLKPEDTAVYFCAADRGYVWRYDYWGQGTQVTVSS” as the sequence, how does the “polyreactivity (PSR sort gate)” value read?
A: low polyreactivity

Q: Which “polyreactivity (PSR sort gate)” value does the source give for “QVQLVESGGGLVQAGGSLRLSCAASGITFGGNAMGWYRQAPGKEMELVAAISWNGGRTYYADSVKGRFTISRDNAKNTVYLQMNSLKPEDTAVYYCNTPVFSKSSRKYYYWGQGTQVTVSS” here?
A: high polyreactivity

Q: Which “polyreactivity (PSR sort gate)” value does the source give for “QVQLLESGGGLVQAGGSLRLSCAASGSTLARYTMGWSRQAPGKERELVATIDFGGVNTYYADSVKGRFTISRDNAKNTVYLQMNSLKPEDTAVYYCAVDNPFIWFFGPDEYWGQGTQVTVSS” here?
A: low polyreactivity

Q: For “QVQLVESGGGLVQAGGSLRLSCAASGSTFHYYARGWYSQAPGKDRELVAAIRTSGGSTYYADSVKGRFTISRDNEKNTVYLLMNCLKPEDTAVYYCNRVLGYPYGVDYWGQGTQVTVSS”, which “polyreactivity (PSR sort gate)” value is on record?
A: high polyreactivity

Q: With “QVQLVESGGGLVQAGGSLRLSCAASGIIFPYNAMGWYRQAPGKERELVAAITYRDGSTYYADSVKGRFTISRDNAKNTVYLQMNSLKPEDTAVYYCAADRYVYWDLYGYWGQGTQVTVSS” as the sequence, how does the “polyreactivity (PSR sort gate)” value read?
A: low polyreactivity

Q: Which “polyreactivity (PSR sort gate)” value does the source give for “QVQLVESGGGLVQAGGSLRLSCAASGSTSSPNAMGWNTQAPGKEREFVAAISRSGGSTYYADSVKGRFTISRDNAKNTVYLQMNSLKPEDSAVYYCAATVTVFYTRYYYWGQGTHVTVSS” here?
A: high polyreactivity

Q: Which “polyreactivity (PSR sort gate)” value does the source give for “QVQLVESGGALVQAGGSLRISCAASGFTLQRNTMGWYRQAPGKDREFVAAISVRGGSTYYADSVKGRFTNSRDTAKNTVYLQMNSLKPEDTAVYYCAAVGRPSQYSYPYGYWGQGTQVTVSS” here?
A: high polyreactivity

Q: Which “polyreactivity (PSR sort gate)” value does the source give for “QVQLVESGGGLVQAGGSLRLSCAASGLTFKYYAMGWSRQAPGKESELVAAITSTGGRTYYADSVKGRFTISRDNAKNTVYLQMNSLKPEDTAVYYCAAYYVGSSKYDSWGQGTQVTVSS” here?
A: low polyreactivity

Q: With “QVQLVESGRGLVHAGGSLLLSCAASGSTFGWYAMGRFIQARGKEREFVAAISWSGTSTYYADSVKGRFTISRDNAKNTFDLQMNSLKPEDTAVYYCASRWVVFTEREDYWGQGTQVTVSS” as the sequence, how does the “polyreactivity (PSR sort gate)” value read?
A: low polyreactivity

Q: Which “polyreactivity (PSR sort gate)” value does the source give for “QVQLVESGGGLVQAGGSLRLSCAASGLIFPGYDMGWYRAAPGKVRELVAAISDSGANTYYADSVKVRFTISRDNAKNTVYLQMNSLKPEDTAVYYCAADSSWGYGTYFGRFDYWGQGTQVTVSS” here?
A: low polyreactivity

Q: For “QVQLVESGGGLVQAGGSLRLSCAASGGTSFYAMGWYRQAPGKDRELVAAITRSGGSTYYADSVKGRFTFSRDNAKNTVYLQMNSLKPEDTAVYYCAALSNHGYYIRMDYWGQGTQVTVSS”, which “polyreactivity (PSR sort gate)” value is on record?
A: high polyreactivity

Q: With “QVQLEESGVGLVQAGGSLRLSWAASGFIIYINTMGWYRQAPGKERELVAAISQSGVGTSYADSVKGRFTISRDNAKNTVYLQMNRLKPEDTAVYYCATDCARSDVVDRFDYWGQGTQVTVSS” as the sequence, how does the “polyreactivity (PSR sort gate)” value read?
A: low polyreactivity

Q: With “QVQLVESGGGIVQAGGSLRLICAASGIIFPVYAMGWYRPAPGKERELVAAISRSGGSTYYADSVKGRFTISRDHAKNTVYLQMNSLKPEDTAVYYCAARYVVGYSLSSYGYWGQGTQVTVSS” as the sequence, how does the “polyreactivity (PSR sort gate)” value read?
A: high polyreactivity

Q: Which “polyreactivity (PSR sort gate)” value does the source give for “QVQLVESGGGLVQAGGSLRLSCAASGRIFQPYTMGWYRQAPGKERELVAAITRSGGSTYYADSVKGRFTISRDNAKNTVYLQMNSLKPEDTAVYYCAADSRPYGKYDYWGQGTQVTVSS” here?
A: high polyreactivity

Q: For “QVQLVESGGGLVQAGGSLRLSCAASGLTFNYYDMGWYRQAPGKERELVAAISRSGTNTSYADSVKGRFTISRDNAKNTVYLQMNSLKPEDTAVYYCNAAGVYLAAGPYTANFNYNYWGQGTQVTVSS”, which “polyreactivity (PSR sort gate)” value is on record?
A: low polyreactivity

Q: Which “polyreactivity (PSR sort gate)” value does the source give for “QVQLVESGGGLVQAGGSLRLSCAASGRTFGQNAMGWYRQAPGKERELVAAISASGSNTYYADSVKGRFTISRDHAKNTVYLQMNSLKPEDTAVYYCAKQVYRPGQQSRYDYWGQGTQVTVSS” here?
A: low polyreactivity

Q: For “QVQLVESGRGLVQAGGSLSLSCAASGITFRPYPMGWYRKAPGKERELVAAISRGGSSTYYADSVKGRFTISRDYAKNTVYLQMISLKPEDTAVYYFAARNNKKYDYWGQGTQVTVSS”, which “polyreactivity (PSR sort gate)” value is on record?
A: high polyreactivity

Q: For “QVQLVESVGGLVQAGGSLRLSCAASGFTFYKNAMGWYRQATGKERELVAPITKSGGRTYYADSVKGRFTISRDYAKNTVYLQMNCLKPEDNAVYYCAADISPFGRQPCVIRYSWGQGTQVTVSS”, which “polyreactivity (PSR sort gate)” value is on record?
A: high polyreactivity

Q: With “QVQLVESGGGLVQAGGSLRLSCAASGSTFKVYAMGWYRQAPGKERELVAVISGGGRTNYADSVKGRFTISRDNAKNTVYLQMNSLKPEDTAVYYCAALGPYGSARRKYGYWGQGTQVTVSS” as the sequence, how does the “polyreactivity (PSR sort gate)” value read?
A: high polyreactivity

Q: Which “polyreactivity (PSR sort gate)” value does the source give for “QVQLVESGGGLVQAGGSLRLSCAASGLTCRYNAMGWYRQAPGKERELVAGIRISGGNTRYADAVKGRCTISRDNAKKSVYLQMNSLKPEDTAVYYCSALTGFYNLRPYGYWGQGTQVTVSS” here?
A: high polyreactivity

Q: With “QVQLVESGGGLVQAGGSLRLSCAASGFIFWSYAMGWYRQAPGKERELVAAIDLTGGSTYYADSVKGRFTISRDNAKNTVYFQMNSLKPEDTAVYYCNADGDTYAFTNSDSGFDYWGQGTQVTVSS” as the sequence, how does the “polyreactivity (PSR sort gate)” value read?
A: low polyreactivity

Q: For “QVQLVESGGGLVQAGGSLRLSCAASGSTFGYYAMGWDRQAPGKERELVAAISRRVGSTYYADSVKGRFTISRDNAKNTVSLQMNSLNPEDTAVYYWASTSVNPWRGDYDMYYWGQGTQVTVSS”, which “polyreactivity (PSR sort gate)” value is on record?
A: high polyreactivity

Q: With “QVQLVESGGGLVQAGGSLRLSCAASGSTFVFNAMGWYRQAPGKERELVARITTGGSTHYADSVKGRFTISRDNAKNTVYLQMNSLKPEDTAVYYCNTGPYTFDSPEYYYWGQGTQVTVSS” as the sequence, how does the “polyreactivity (PSR sort gate)” value read?
A: low polyreactivity

Q: Which “polyreactivity (PSR sort gate)” value does the source give for “QVQLVESGGGLVQAGGSLRLSCAASGFIFTPYAMGWYRQAPGKERELVAAISRSAGSTYYADSVKGRFTISRDNAKNTVYLQMNSLKPEDTAVYYCAADSLTYIAYDYWGQGTQVTVSS” here?
A: high polyreactivity

Q: For “QVQLVESGGGLVQAGGSLRLSCAASGSIFDYYAMGWYRQAPGKETELVAAITYGGGSTYYADSVKGRFTISRDNAKNTVYLQMNSLKPEDTAVYYCNALGENYQFNYWGQGTQVTVSS”, which “polyreactivity (PSR sort gate)” value is on record?
A: low polyreactivity

Q: With “QDQLVESGGGLVQAGGSLRLSCAASGSTFRPYAMGWSRQAPGKERELVAAITTGGSTNYADSVKGRFTISRDNAKNTVYLQMNSLKPEDTAVYYCNADYDVLNWGYYDWGYDYWGHGTQVTVSS” as the sequence, how does the “polyreactivity (PSR sort gate)” value read?
A: low polyreactivity

Q: Which “polyreactivity (PSR sort gate)” value does the source give for “QVQLVESGGGLVQAGGSLRLSCAASGSIFYRNVMGWYRQAPGKERELVAVITGSGDSTFYADSVKGRFTISRDNAKNTVYLQMNSLKPEDTAVYYCNARQVSGGYYYWGQGTQVTVSW” here?
A: low polyreactivity

Q: Which “polyreactivity (PSR sort gate)” value does the source give for “QVQLVESGGGLVQAGGSLRLSCAASGSTFKRYAMGWYRQAPGKEMELVAAISTRGSTYYADSVKGRFTISRDNAKNTVYLQMNRLKPEETAVYYCNADVGAWAWYTRYDYWGQGTQVTVSS” here?
A: low polyreactivity

Q: Which “polyreactivity (PSR sort gate)” value does the source give for “QVQLVESGGGLVQAGGSLRLSCAASGRTFLYYAMGWYRQAPGKERELVAGITSGGSTNYADSVKGRFTITRDNAKNTVYLQMNSLKPEDTAVYYCAVDQGYSRTADVNYDYWGQGTQVTVSS” here?
A: low polyreactivity

Q: For “QVQLLESGGGLVQAGGSLRVSCAASGFTFSRNVMGWYRQAPGKERELVAAITSGSTYYADSVKGRFTISRDNAKNTVYLQMNRLKPEDTAVYYCAKRGRLRNYDYWGQGTQVTVSS”, which “polyreactivity (PSR sort gate)” value is on record?
A: high polyreactivity
